Measurements as given in patent US20150191530A1 (POMONA RICERCA S R L, published 2015).

How the values were obtained:
[1] = molecular target: T1, recombinant BKV VP1 protein (Abcam ab74567) (BK virus, UniProt P03088 1-362); assay: ELISA on recombinant JCV VP1 and recombinant BKV VP1
T1 sequence: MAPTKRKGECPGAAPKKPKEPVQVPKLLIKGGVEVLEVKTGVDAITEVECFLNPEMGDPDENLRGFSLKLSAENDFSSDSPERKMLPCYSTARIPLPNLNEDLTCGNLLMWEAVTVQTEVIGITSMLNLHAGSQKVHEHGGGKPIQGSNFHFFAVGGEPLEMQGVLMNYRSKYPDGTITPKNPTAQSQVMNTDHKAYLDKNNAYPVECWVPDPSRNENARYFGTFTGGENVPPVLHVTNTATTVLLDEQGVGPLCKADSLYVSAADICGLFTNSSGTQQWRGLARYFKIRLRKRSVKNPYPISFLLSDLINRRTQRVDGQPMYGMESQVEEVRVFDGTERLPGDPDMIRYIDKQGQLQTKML

[2] = molecular target: T2, recombinant JCV VP1 protein (Mad1 strain, Abcam ab74569) (JC virus, Mad1 strain, UniProt P03089 1-354); assay: method not stated
T2 construct: also called recombinant VP1 from Mad1 strain; VP1/JCV

bovine serum albumin = molecular target: T3, bovine serum albumin (bovine, UniProt P02769 25-607); assay: ELISA with crude Fab preparations
T3 construct: also called BSA
T3 sequence (P02769 25-607 limits assumed): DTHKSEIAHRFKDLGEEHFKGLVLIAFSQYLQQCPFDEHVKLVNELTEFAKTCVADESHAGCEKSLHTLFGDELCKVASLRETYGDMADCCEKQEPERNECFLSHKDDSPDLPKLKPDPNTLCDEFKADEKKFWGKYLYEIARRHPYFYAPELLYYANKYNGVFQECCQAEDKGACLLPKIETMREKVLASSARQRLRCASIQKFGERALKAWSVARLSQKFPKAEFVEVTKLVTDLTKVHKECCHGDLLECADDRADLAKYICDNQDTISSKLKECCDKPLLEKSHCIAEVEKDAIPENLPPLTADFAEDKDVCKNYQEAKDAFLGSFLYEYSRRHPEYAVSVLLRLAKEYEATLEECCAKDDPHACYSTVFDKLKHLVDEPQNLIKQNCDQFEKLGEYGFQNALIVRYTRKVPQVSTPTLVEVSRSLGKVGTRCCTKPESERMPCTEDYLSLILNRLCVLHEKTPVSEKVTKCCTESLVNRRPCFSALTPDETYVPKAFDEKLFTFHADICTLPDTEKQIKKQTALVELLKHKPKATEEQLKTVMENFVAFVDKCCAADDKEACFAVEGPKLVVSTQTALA

T2 sequence (P03089 whole entry): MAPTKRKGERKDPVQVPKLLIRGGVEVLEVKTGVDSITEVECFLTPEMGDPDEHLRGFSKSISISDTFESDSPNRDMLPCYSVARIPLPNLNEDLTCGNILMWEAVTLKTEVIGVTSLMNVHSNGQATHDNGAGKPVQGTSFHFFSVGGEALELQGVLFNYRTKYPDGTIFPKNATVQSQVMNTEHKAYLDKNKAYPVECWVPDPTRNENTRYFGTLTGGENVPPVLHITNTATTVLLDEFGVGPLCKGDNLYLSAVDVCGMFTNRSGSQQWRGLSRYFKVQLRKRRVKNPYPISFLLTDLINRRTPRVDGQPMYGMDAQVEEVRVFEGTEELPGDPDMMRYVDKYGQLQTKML

B1: GRE1 human anti-JCV VP1 monoclonal antibody (Fab, V domains shown)
VH: WGPGLVKPSQSLSLTCAVSGASVSSGINYWSWIRLYPGKGLEWIGYVYSSGTTYYNPSLKSRVSISLDTSKNQFSLNLRSVTAADTAVYYCARDRGDSSGSSYYKYYMDVWGKGTTVTVSS
VL: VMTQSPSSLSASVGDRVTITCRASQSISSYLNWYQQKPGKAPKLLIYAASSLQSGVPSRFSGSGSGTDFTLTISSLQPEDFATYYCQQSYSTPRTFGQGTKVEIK
notes: also called IgG GRE; JCV-GRE1
[1]
  binding result: no binding
[2]
  Kd: ~1 nM
Bovine serum albumin
  binding result: no binding
